Broadly, the koff is the rate constant with which the complex falls apart. As a reminder, the kon is the rate constant with which the complex forms.

Five molecules from patent US20260015426A1 (23ANDME, published 2026) can be followed below.

Assay [1] deals with T1, hu-M-IL1RAP construct, positions S21-T367 (extracellular domain of the membrane form of human IL1RAP) (human, UniProt Q9NPH3 21-367).
T1 construct: Biotinylated when captured on the Biacore chip
T1 sequence: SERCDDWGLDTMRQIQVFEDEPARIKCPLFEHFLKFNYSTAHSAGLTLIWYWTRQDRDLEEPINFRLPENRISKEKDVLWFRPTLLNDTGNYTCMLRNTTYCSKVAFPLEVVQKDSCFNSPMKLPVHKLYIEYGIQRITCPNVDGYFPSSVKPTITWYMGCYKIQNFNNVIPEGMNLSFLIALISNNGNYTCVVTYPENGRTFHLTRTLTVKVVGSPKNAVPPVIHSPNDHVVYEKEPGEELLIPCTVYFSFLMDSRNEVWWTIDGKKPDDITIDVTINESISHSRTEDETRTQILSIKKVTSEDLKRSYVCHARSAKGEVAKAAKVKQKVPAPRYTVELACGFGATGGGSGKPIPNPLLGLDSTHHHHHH
In words: SPR, Fab against parent Fab. On the technique in general: SPR reads the build-up and loss of mass on a sensor chip optically.

The target of assay [2] is T1, hu-M-IL1RAP construct, positions …. In words: SPR, Fab analyte, 25 C.
Assay [3] has the same target. In words: phage display selection of affinity maturation libraries + NGS; enrichment of the mutation Y30W (VL).
Assay [4] shares this target. Put plainly: phage display selection of affinity maturation libraries + NGS; enrichment of the mutation W92K (VL).
For assay [5] the target is unchanged. In words: phage display selection of affinity maturation libraries + NGS; enrichment of the mutation L33G (VL).
Assay [6] has as its target T2, biotinylated human FcRn (Acro biosystems, catalogue number FCN-H52W7) (human, UniProt P55899 24-297; P61769 21-119, biotinylated).
T2 construct: Bought reagent; also called hu-FcRn
Put plainly: SPR steady state, FcRn captured, 25 C, pH 6.0; pH 6.0.

In assay [7] the target is T3, biotinylated cyno FcRn (Acro biosystems, catalogue number FCM-C5284) (cynomolgus monkey, UniProt Q8SPV9 24-297; Q8SPW0 21-119, limits assumed, biotinylated).
T3 construct: Bought reagent
The assay is described as above.

In assay [8] the target is T4, human IL1RAP (hu-IL1RAP) on human cells (human, UniProt Q9NPH3 21-570).
T4 sequence: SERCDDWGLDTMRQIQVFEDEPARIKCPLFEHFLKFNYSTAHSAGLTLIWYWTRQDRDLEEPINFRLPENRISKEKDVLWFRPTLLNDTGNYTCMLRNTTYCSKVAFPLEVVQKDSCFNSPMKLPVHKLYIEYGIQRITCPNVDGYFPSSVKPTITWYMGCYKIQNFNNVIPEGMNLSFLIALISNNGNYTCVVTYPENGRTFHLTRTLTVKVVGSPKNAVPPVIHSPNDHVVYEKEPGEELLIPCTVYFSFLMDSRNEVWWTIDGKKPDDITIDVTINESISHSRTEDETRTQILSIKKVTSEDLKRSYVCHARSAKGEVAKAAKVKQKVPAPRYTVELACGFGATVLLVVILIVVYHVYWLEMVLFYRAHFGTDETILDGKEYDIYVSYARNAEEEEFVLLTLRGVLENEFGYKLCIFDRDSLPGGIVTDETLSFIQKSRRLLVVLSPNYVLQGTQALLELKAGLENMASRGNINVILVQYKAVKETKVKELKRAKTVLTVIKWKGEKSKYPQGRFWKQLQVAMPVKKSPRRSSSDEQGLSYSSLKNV
Put plainly: cell-based or functional assay.

Assay [9] addresses T5, cyno-M-IL1RAP construct, positions S21-T367 (cynomolgus monkey, UniProt P59822 21-367 (rhesus entry)).
T5 construct: Biotinylated when captured on the Biacore chip; also called cy-M-IL1RAP
T5 sequence: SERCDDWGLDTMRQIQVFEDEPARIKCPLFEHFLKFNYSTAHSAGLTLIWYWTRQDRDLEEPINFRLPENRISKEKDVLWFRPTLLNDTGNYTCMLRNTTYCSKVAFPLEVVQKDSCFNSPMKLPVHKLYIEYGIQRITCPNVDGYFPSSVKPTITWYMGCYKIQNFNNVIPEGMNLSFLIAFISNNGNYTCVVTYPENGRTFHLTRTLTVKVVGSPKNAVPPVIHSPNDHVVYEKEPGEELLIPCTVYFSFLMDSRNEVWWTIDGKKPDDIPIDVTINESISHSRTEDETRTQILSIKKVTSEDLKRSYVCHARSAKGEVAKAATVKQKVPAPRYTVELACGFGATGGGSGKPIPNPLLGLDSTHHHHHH
Put plainly: SPR, against YKD.

Assay [10] has as its target T1, hu-M-IL1RAP construct, positions …. In words: SPR, against YKD.
Assay [11] concerns the target T5, cyno-M-IL1RAP construct, positions …. In words: SPR, IgG analyte (apparent), pH 7.4, 37 C.
In assay [12] the target is T1, hu-M-IL1RAP construct, positions …. Put plainly: SPR, IgG analyte (apparent), pH 7.4, 37 C.
Assay [13] addresses T5, cyno-M-IL1RAP construct, positions …. Put plainly: SPR, against YIS.
For assay [14], the target named is T1, hu-M-IL1RAP construct, positions …. Put plainly: SPR, against YIS.

T2 sequence (P55899 24-297 limits assumed, chain 1 of 2): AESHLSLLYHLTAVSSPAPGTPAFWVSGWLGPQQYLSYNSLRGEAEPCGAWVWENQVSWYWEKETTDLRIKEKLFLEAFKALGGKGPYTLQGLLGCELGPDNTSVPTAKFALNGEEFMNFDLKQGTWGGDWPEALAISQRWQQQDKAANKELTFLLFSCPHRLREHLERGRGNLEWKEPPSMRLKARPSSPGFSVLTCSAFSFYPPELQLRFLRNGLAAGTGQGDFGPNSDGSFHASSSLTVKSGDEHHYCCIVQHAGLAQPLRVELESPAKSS
T2 sequence (P61769 21-119 limits assumed, chain 2 of 2): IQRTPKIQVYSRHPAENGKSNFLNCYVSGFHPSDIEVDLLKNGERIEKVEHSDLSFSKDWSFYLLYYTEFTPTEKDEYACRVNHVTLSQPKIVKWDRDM

B1: K1 Fab (VL Y30W) (Fab, V domains shown)
VH: EVQLVESGGGLVQPGGSLRLSCAASGFTFSNYAMSWVRQAPGKGLEWVATVTEGGDYNYYLDDVKGRFTISRDNAKNSLYLQMNSLRAEDTAVYYCARDRWPYFFDYWGQGTLVTVSS
VL: DIQMTQSPSSLSASVGDRVTITCRASENIWSNLAWYQQKPGKSPKLLVYGAKNLADGVPSRFSGSGSGTDYTLTISSLQPEDFATYYCQHFWTTPRTFGGGTKVEIK
notes: Fab with 8xHis tag
Consider B1, for which the “Fold Improvement in KD @ 25° C.” value in [1] was 9.06 fold. In assay [2], this molecule displayed a Kd of 0.0372 nM, a koff of 0.00018 s⁻¹ and a kon of 4.82e+06 M⁻¹ s⁻¹. For the same molecule, the “Enrichment ratio (at the highest selection stringency)” value in [3] came out at 3.52 ratio.

B2: K3 Fab (VL W92K) (Fab, V domains shown)
VH: EVQLVESGGGLVQPGGSLRLSCAASGFTFSNYAMSWVRQAPGKGLEWVATVTEGGDYNYYLDDVKGRFTISRDNAKNSLYLQMNSLRAEDTAVYYCARDRWPYFFDYWGQGTLVTVSS
VL: DIQMTQSPSSLSASVGDRVTITCRASENIYSNLAWYQQKPGKSPKLLVYGAKNLADGVPSRFSGSGSGTDYTLTISSLQPEDFATYYCQHFKTTPRTFGGGTKVEIK
notes: Fab with 8xHis tag
Turning to B2, the “Fold Improvement in KD @ 25° C.” value in [1] worked out at 6.44 fold. In assay [2], this molecule yielded a Kd of 0.0523 nM, a koff of 0.000198 s⁻¹ and a kon of 3.78e+06 M⁻¹ s⁻¹. In [4], the “Enrichment ratio (at the highest selection stringency)” value is 3.31 ratio.

B3: K2 Fab (VL L33G) (Fab, V domains shown)
VH: EVQLVESGGGLVQPGGSLRLSCAASGFTFSNYAMSWVRQAPGKGLEWVATVTEGGDYNYYLDDVKGRFTISRDNAKNSLYLQMNSLRAEDTAVYYCARDRWPYFFDYWGQGTLVTVSS
VL: DIQMTQSPSSLSASVGDRVTITCRASENIYSNGAWYQQKPGKSPKLLVYGAKNLADGVPSRFSGSGSGTDYTLTISSLQPEDFATYYCQHFWTTPRTFGGGTKVEIK
notes: Fab with 8xHis tag
For B3, the “Fold Improvement in KD @ 25° C.” value in [1] turned out to be 9.74 fold. In assay [2], the Kd came to 0.0346 nM, the off-rate constant (koff) amounted to 0.000158 s⁻¹ and the kon was 4.57e+06 M⁻¹ s⁻¹. In [5], the “Enrichment ratio (at the highest selection stringency)” value is 1.71 ratio.

B4: h11C5 variant YKD/YTE (antibody, human IgG1, kappa, N297G)
heavy: EVQLVESGGGLVQPGGSLRLSCAASGFTFSNYAMSWVRQAPGKGLEWVATVTEGGDYNYYLDDVKGRFTISRDNAKNSLYLQMNSLRAEDTAVYYCARDDWPYFFDYWGQGTLVTVSSASTKGPSVFPLAPSSKSTSGGTAALGCLVKDYFPEPVTVSWNSGALTSGVHTFPAVLQSSGLYSLSSVVTVPSSSLGTQTYICNVNHKPSNTKVDKKVEPKSCDKTHTCPPCPAPELLGGPSVFLFPPKPKDTLYITREPEVTCVVVDVSHEDPEVKFNWYVDGVEVHNAKTKPREEQYGSTYRVVSVLTVLHQDWLNGKEYKCKVSNKALPAPIEKTISKAKGQPREPQVYTLPPSRDELTKNQVSLTCLVKGFYPSDIAVEWESNGQPENNYKTTPPVLDSDGSFFLYSKLTVDKSRWQQGNVFSCSVMHEALHNHYTQKSLSLSPGK
light: DIQMTQSPSSLSASVGDRVTITCRASENIYSNLAWYQQKPGKSPKLLVYGYKNLADGVPSRFSGSGSGTDYTLTISSLQPEDFATYYCQHFKTTPRTFGGGTKVEIKRTVAAPSVFIFPPSDEQLKSGTASVVCLLNNFYPREAKVQWKVDNALQSGNSQESVTEQDSKDSTYSLSSTLTLSKADYEKHKVYACEVTHQGLSSPVTKSFNRGEC
notes: YKD with M252Y/S254T/T256E (Eu index) in the Fc; N297G; also called 11C5-YKD/YTE; YKDNTE
B4 returned a Kd in assay [6] of 130 nM. Moreover, in assay [7], the Kd was 21.4 nM. Also, in assay [8], the “CD4+ T cells, IL-33+IL-12 stimulated IFN-γ, IC50” value turned out to be 44 nM; the “HEK-Blue, IL-1β, IC50” value was determined as 0.51 nM; the “HEK-Blue, IL-33, % inhibition at 100 nM” value is 97%; the “HEK-Blue, IL-33, IC50” value was found to be 3.3 nM. Moreover, in assay [8], the “HEK-Blue, IL-36β, IC50” value amounted to 0.9 nM; the “HEKn, IL-36β stimulated IL-8, IC50” value amounted to 1.16 nM; the “NK cells, IL-33+IL-12 stimulated IFN-γ, IC50” value is 1.32 nM; the “PHLF, IL-1α stimulated IL-8, IC50” value stood at 6.47 nM. In addition, in assay [8], the “PHLF, IL-36β stimulated IL-8, IC50” value turned out to be 0.5 nM; the “basophils, IL-33 stimulated p38 phosphorylation, IC50” value turned out to be 41 nM; the “monocytes, IL-1β stimulated IL-6, IC50” value is 0.158 nM. Further, the “KD YTE/KD Parental” value in [9] was 0.98 ratio. Further, the “KD YTE/KD Parental” value in [10] came out at 0.84 ratio. Further, in [11], the Kd was found to be 0.0219 nM, the koff was determined as 4.9e-05 s⁻¹ and the kon worked out at 2.24e+06 M⁻¹ s⁻¹. In addition, in [12], the Kd amounted to 0.0254 nM, the koff was 5.12e-05 s⁻¹ and the kon worked out at 2.02e+06 M⁻¹ s⁻¹.

B5: h11C5 variant YIS/YTE (antibody, human IgG1, kappa, N297G)
heavy: EVQLVESGGGLVQPGGSLRLSCAASGFTFSNYAMSWVRQAPGKGLEWVATSTEGGDYNYYLDDVKGRFTISRDNAKNSLYLQMNSLRAEDTAVYYCARDRWPYFFDYWGQGTLVTVSSASTKGPSVFPLAPSSKSTSGGTAALGCLVKDYFPEPVTVSWNSGALTSGVHTFPAVLQSSGLYSLSSVVTVPSSSLGTQTYICNVNHKPSNTKVDKKVEPKSCDKTHTCPPCPAPELLGGPSVFLFPPKPKDTLYITREPEVTCVVVDVSHEDPEVKFNWYVDGVEVHNAKTKPREEQYGSTYRVVSVLTVLHQDWLNGKEYKCKVSNKALPAPIEKTISKAKGQPREPQVYTLPPSRDELTKNQVSLTCLVKGFYPSDIAVEWESNGQPENNYKTTPPVLDSDGSFFLYSKLTVDKSRWQQGNVFSCSVMHEALHNHYTQKSLSLSPGK
light: DIQMTQSPSSLSASVGDRVTITCRASENIYSNLAWYQQKPGKSPKLLVYGYKNLADGVPSRFSGSGSGTDYTLTISSLQPEDFATYYCQHFITTPRTFGGGTKVEIKRTVAAPSVFIFPPSDEQLKSGTASVVCLLNNFYPREAKVQWKVDNALQSGNSQESVTEQDSKDSTYSLSSTLTLSKADYEKHKVYACEVTHQGLSSPVTKSFNRGEC
notes: YIS with M252Y/S254T/T256E (Eu index) in the Fc; N297G; also called 11C5-YIS/YTE
For B5, the “KD YTE/KD Parental” value in [13] was 0.69 ratio. The “KD YTE/KD Parental” value in assay [14] amounted to 0.99 ratio. In assay [11], the Kd was 0.00798 nM, the koff was 3.07e-05 s⁻¹ and the kon was found to be 3.85e+06 M⁻¹ s⁻¹. For the same molecule, in assay [12], the Kd stood at 0.013 nM, the koff turned out to be 4.43e-05 s⁻¹ and the kon is 3.42e+06 M⁻¹ s⁻¹.
